According to US20230212319A1, “NOVEL ANTIGEN BINDING DOMAINS AND SYNTHETIC ANTIGEN RECEPTORS INCORPORATING THE SAME” (University of Southern California, priority 2020, published 2023):
“Also recorded” adds a separate entry of the source.

What was measured:
LNCaP-LucPPe cells = test: LNCaP-LucPPE xenograft in NSG mice, with rechallenge; format: in vivo; conditions: for tumor control (bioluminescence imaging, caliper tumor volume), LNCaP-LucPPE xenograft: 1 × 10^6 LNCaP-LucPPe s.c., 17 days later 3 × 10^6 T cells i.v., male NSG mice; for survival, LNCaP-LucPPE xenograft: mouse, in vivo
RAJI cells = test: JNG (Jurkat NFAT-GFP) cells expressing SAR: GFP induction on co-culture with RAJI; conditions: CD19 hu-mROO5-1 SIRs with deletion mutants of TCR constant chains; flow cytometry

Molecule | tumor control (bioluminescence imaging, caliper tumor volume), LNCaP-LucPPE xenograft (LNCaP-LucPPe cells) | survival, LNCaP-LucPPE xenograft (LNCaP-LucPPe cells) | Jurkat-NFAT ASSA Y: Raji (RAJI cells)
9901 (protein, Synthetic Polynucloetide) MALPVTALLLPLALLLHAARPDIQMTQSPSSLSASVGDRVTITCKASQDVGTAVDWYQQKPGKAPKLLIYWASTRHTGVPSRFSGSGSGTDFTLTISSLQPEDFATYYCQQYNSYPLTFGQGTKVEIKRLEDLKNVFPPEVAVFEPSEAEISHTQKATLVCLATGFYPDHVELSWWVNGKEVHSGVCTDPQPLKEQPALNDSRYCLSSRLRVSATFWQNPRNHFRCQVQFYGLSENDEWTQDRAKPVTQIVSAEAWGRADCGFTSESYQQGVLSATILYEILLGKATLYAVLVSALVLMAMVKRKDSRGRAKRSGSGATNFSLLKQAGDVEENPGPTSMDWIWRILFLVGAATGAHSFEEVQLQQSGPELVKPGTSVRISCKTSGYTFTEYTIHWVKQSHGKSLEWIGNINPNNGGTTYNQKFEDKATLTVDKSSSTAYMELRSLTSEDSAVYYCAAGWNFDYWGQGTTLTVSSTRIQNPDPAVYQLRDSKSSDKSVCLFTDFDSQTNVSQSKDSDVYITDKCVLDMRSMDFKSNSAVAWSNKSDFACANAFNNSIIPEDTFFPSPESSCDVKLVEKSFETDTNLNFQNLSVIGFRILLLKVAGFNLLMTLRLWSS | effective control of tumor; also recorded: statistically significant and effective tumor control | improvement in survival | –
9763 (protein, Synthetic Polynucloetide) MALPVTALLLPLALLLHAARPDIQMTQSPSSLSASVGDRVTITCKASQDVGTAVDWYQQKPGKAPKLLIYWASTRHTGVPSRFSGSGSGTDFTLTISSLQPEDFATYYCQQYNSYPLTFGQGTKVEIKRLEDLKNVFPPEVAVFEPSEAEISHTQKATLVCLATGFYPDHVELSWWVNGKEVHSGVCTDPQPLKEQPALNDSRYCLSSRLRVSATFWQNPRNHFRCQVQFYGLSENDEWTQDRAKPVTQIVSAEAWGRADCGFTSESYQQGVLSATILYEILLGKATLYAVLVSALVLMAMVKRKDSRGRAKRSGSGATNFSLLKQAGDVEENPGPTSMDWIWRILFLVGAATGAHSFEEVQLVESGGGLVQPGGSLRLSCAASGYTFTEYTIHWVRQAPGKGLEWVANINPNNGGTTYNQKFEDRFTISRDNSKNTLYLQMNSLRAEDTAVYYCARGWNFDYWGQGTLVTVSSTRIQNPDPAVYQLRDSKSSDKSVCLFTDFDSQTNVSQSKDSDVYITDKCVLDMRSMDFKSNSAVAWSNKSDFACANAFNNSIIPEDTFFPSPESSCDVKLVEKSFETDTNLNFQNLSVIGFRILLLKVAGFNLLMTLRLWSS | effective control of tumor | improvement in survival | –
9970 (protein, Synthetic Polynucloetide) MALPVTALLLPLALLLHAARPDIVMTQSHKFMSTSVGDRVSIICKASQDVGTAVDWYQQKPGQSPKLLIYWASTRHTGVPDRFTGSGSGTDFTLAITNVQSEDLADYFCQQYNSYPLTFGAGTKLEIKRLEDLKNVFPPEVAVFEPSEAEISHTQKATLVCLATGFYPDHVELSWWVNGKEVHSGVCTDPQPLKEQPALNDSRYCLSSRLRVSATFWQNPRNHFRCQVQFYGLSENDEWTQDRAKPVTQIVSAEAWGRADCGFTSESYQQGVLSATILYEILLGKATLYAVLVSALVLMAMVKRKDSRGRAKRSGSGATNFSLLKQAGDVEENPGPTSMDWIWRILFLVGAATGAHSFEEVQLVESGGGLVQPGGSLRLSCAASGYTFTEYTIHWVRQAPGKGLEWVANINPNNGGTTYNQKFEDRFTISRDNSKNTLYLQMNSLRAEDTAVYYCARGWNFDYWGQGTLVTVSSTRIQNPDPAVYQLRDSKSSDKSVCLFTDFDSQTNVSQSKDSDVYITDKCVLDMRSMDFKSNSAVAWSNKSDFACANAFNNSIIPEDTFFPSPESSCDVKLVEKSFETDTNLNFQNLSVIGFRILLLKVAGFNLLMTLRLWSS | statistically significant and effective tumor control | – | –
9832 (protein, Synthetic Polynucloetide) MALPVTALLLPLALLLHAARPDIQMTQSPSSLSASVGDRVTITCKASQDVGTAVDWYQQKPGKAPKLLISWASTRHTGVPSRFSGSGSGTDFTLTISSLQPEDFATYFCQQYNSYPLTFGQGTKVEIKRTVLEDLKNVFPPEVAVFEPSEAEISHTQKATLVCLATGFYPDHVELSWWVNGKEVHSGVCTDPQPLKEQPALNDSRYCLSSRLRVSATFWQNPRNHFRCQVQFYGLSENDEWTQDRAKPVTQIVSAEAWGRADCGFTSESYQQGVLSATILYEILLGKATLYAVLVSALVLMAMVKRKDSRGRAKRSGSGATNFSLLKQAGDVEENPGPTSMDWIWRILFLVGAATGAHSFEQVQLVQSGAEVKKPGESVKVSCKASGYTFTEYTIHWVRQAPGQGLEWMGNINPNNGGTTYNQKFEDRVTITADKSTSTAYMELSSLRSEDTAVYYCARGWNFDYWGQGTTVTVSSTRIQNPDPAVYQLRDSKSSDKSVCLFTDFDSQTNVSQSKDSDVYITDKCVLDMRSMDFKSNSAVAWSNKSDFACANAFNNSIIPEDTFFPSPESSCDVKLVEKSFETDTNLNFQNLSVIGFRILLLKVAGFNLLMTLRLWSS | effective control of tumor | improvement in survival | –
9762 (protein, Synthetic Polynucloetide) MALPVTALLLPLALLLHAARPDIQMTQSPSSLSASVGDRVTITCKASQDVGTAVDWYQQKPGKAPKLLIYWASTRHTGVPSRFSGSGSGTDFTLTISSLQPEDFATYYCQQYNSYPLTFGQGTKVEIKRLEDLKNVFPPEVAVFEPSKAEIAHTQKATLVCLATGFYPDHVELSWWVNGKEVHSGVCTDPQPLKEQPALNDSRYCLSSRLRVSATFWQNPRNHFRCQVQFYGLSENDEWTQDRAKPVTQIVSAEAWGRADCGITSASYHQGVLSATILYEILLGKATLYAVLVSALVLMAMVKRKDSRGRAKRSGSGATNFSLLKQAGDVEENPGPTSMDWIWRILFLVGAATGAHSFEEVQLVESGGGLVQPGGSLRLSCAASGYTFTEYTIHWVRQAPGKGLEWVANINPNNGGTTYNQKFEDRFTISRDNSKNTLYLQMNSLRAEDTAVYYCARGWNFDYWGQGTLVTVSSTRIQNPDPAVYQLRDSKSSDKSVCLFTDFDSQTNVSQSKDSDVYITDKCVLDMRSMDFKSNSAVAWSNKSDFACANAFNNSIIPEDTFFPSSDVPCDVKLVEKSFETDTNLNFQNLSVIGFRILLLKVAGFNLLMTLRLWSSRAKRSGSGVKQTLNFDLLKLAGDVESNPGPSRGHMTEYKPTVRLATRDDVPRAVRTLAAAFADYPATRHTVDPDRHIERVTELQELFLTRVGLDIGKVWVADDGAAVAVWTTPESVEAGAVFAEIGPRMAELSGSRLAAQQQMEGLLAPHRPKEPAWFLATVGVSPDHQGKGLGSAVVLPGVEAAERAGVPAFLETSAPRNLPFYERLGFTVTADVEVPEGPRTWCMTRKPGA | statistically significant and effective tumor control | – | –
22641 (protein) MALPVTALLLPLALLLHAARPDIQMTQSPSSLSASVGDRVTITCKASDHINNWLAWYQQKPGQAPKLLIYGATTLETGVPSRFSGSGSGTDYTLTISSLQPEDFATYYCQQSWNTPWTFGQGTKLEIKRLEAEISHTQKATLVCLATGFYPDHVELSWWVNGKEVHSGVCTDPQPLKEQPALNDSRYCLSSRLRVSATFWQNPRNHFRCQVQFYGLSENDEWTQDRAKPVTQIVSAEAWGRADCGFTSESYQQGVLSATILYEILLGKATLYAVLVSALVLMAMVKRKDSRGRAKRSGSGATNFSLLKQAGDVEENPGPTSMDWIWRILFLVGAATGAHSFEQVQLQQPGAELVKPGASVKMSCKASGYAFSSYWINWMKQKPGQGLEWIGQIYPGDGDTNYNGKFKGRATLTADTSSSTAYMQLSSLTSEDSAVYFCARSITTVVGCAMDYWGQGTSVTVSSTRDKSVCLFTDFDSQTNVSQSKDSDVYITDKCVLDMRSMDFKSNSAVAWSNKSDFACANAFNNSIIPEDTFFPSPESSCDVKLVEKSFETDTNLNFQNLSVIGFRILLLKVAGFNLLMTLRLWSSRAKRSGSGVKQTLNFDLLKLAGDVESNPGPSRGHMTEYKPTVRLATRDDVPRAVRTLAAAFADYPATRHTVDPDRHIERVTELQELFLTRVGLDIGKVWVADDGAAVAVWTTPESVEAGAVFAEIGPRMAELSGSRLAAQQQMEGLLAPHRPKEPAWFLATVGVSPDHQGKGLGSAVVLPGVEAAERAGVPAFLETSAPRNLPFYERLGFTVTADVEVPEGPRTWCMTRKPGA | – | – | significant GFP induction
9694 (protein, Synthetic Polynucloetide) MALPVTALLLPLALLLHAARPDIVMTQSHKFMSTSVGDRVSIICKASQDVGTAVDWYQQKPGQSPKLLIYWASTRHTGVPDRFTGSGSGTDFTLAITNVQSEDLADYFCQQYNSYPLTFGAGTKLEIKRLEDLKNVFPPEVAVFEPSEAEISHTQKATLVCLATGFYPDHVELSWWVNGKEVHSGVCTDPQPLKEQPALNDSRYCLSSRLRVSATFWQNPRNHFRCQVQFYGLSENDEWTQDRAKPVTQIVSAEAWGRADCGFTSESYQQGVLSATILYEILLGKATLYAVLVSALVLMAMVKRKDSRGRAKRSGSGATNFSLLKQAGDVEENPGPTSMDWIWRILFLVGAATGAHSFEEVQLQQSGPELVKPGTSVRISCKTSGYTFTEYTIHWVKQSHGKSLEWIGNINPNNGGTTYNQKFEDKATLTVDKSSSTAYMELRSLTSEDSAVYYCAAGWNFDYWGQGTTLTVSSTRIQNPDPAVYQLRDSKSSDKSVCLFTDFDSQTNVSQSKDSDVYITDKCVLDMRSMDFKSNSAVAWSNKSDFACANAFNNSIIPEDTFFPSPESSCDVKLVEKSFETDTNLNFQNLSVIGFRILLLKVAGFNLLMTLRLWSS | effective control of tumor | improvement in survival | –
